The results in this text go back to patent US11634486B2, “Anti-SEZ6L2 antibodies and antibody drug conjugates” (Bluefin BioMedicine, Inc., priority 2016, dated 2023).

One assay deals with T1, SEZ6L (293-SEZ6L) (Homo sapiens, UniProt Q9BYH1).
T1 construct: expressed in transfected cells; host or cells: HEK 293
T1 sequence (Q9BYH1 29-1024): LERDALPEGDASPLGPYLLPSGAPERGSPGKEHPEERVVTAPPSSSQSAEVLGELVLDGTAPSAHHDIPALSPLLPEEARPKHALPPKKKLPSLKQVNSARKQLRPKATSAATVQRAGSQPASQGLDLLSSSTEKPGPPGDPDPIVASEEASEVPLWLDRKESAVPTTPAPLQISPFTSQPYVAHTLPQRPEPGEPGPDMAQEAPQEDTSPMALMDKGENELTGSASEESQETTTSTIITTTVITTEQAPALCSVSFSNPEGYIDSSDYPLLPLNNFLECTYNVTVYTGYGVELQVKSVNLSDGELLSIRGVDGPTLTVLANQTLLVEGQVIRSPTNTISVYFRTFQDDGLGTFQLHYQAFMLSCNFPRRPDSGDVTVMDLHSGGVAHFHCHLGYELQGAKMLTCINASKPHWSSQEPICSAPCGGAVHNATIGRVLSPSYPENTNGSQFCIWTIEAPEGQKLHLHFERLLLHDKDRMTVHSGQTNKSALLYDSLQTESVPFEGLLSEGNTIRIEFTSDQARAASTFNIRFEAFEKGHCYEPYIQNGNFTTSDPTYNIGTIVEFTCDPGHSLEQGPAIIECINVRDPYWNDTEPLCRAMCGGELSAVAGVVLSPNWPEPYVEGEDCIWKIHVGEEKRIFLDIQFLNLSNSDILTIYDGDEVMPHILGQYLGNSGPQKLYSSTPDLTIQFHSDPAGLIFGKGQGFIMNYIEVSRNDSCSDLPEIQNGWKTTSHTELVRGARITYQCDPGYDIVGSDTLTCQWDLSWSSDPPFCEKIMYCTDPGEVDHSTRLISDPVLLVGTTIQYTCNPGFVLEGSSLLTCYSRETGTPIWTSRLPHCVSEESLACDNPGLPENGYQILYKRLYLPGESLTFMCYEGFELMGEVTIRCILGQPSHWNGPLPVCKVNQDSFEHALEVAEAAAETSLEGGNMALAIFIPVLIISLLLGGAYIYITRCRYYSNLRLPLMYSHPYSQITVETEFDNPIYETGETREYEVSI
Briefly: Flow cytometry specificity on overexpressing 293 cells. It is filed as binding. To be noted: primary antibody 1 ug/ml, live cells on ice. Here is the method:
(§1) In order to assess whether SEZ6L2 antibody modulators immunospecifically associate with human SEZ6L2, and to determine whether the same modulators cross-react with SEZ6 and SEZ6L, flow cytometry was performed using a MACSquant™ as per the manufacturer's instructions. More particularly, modulators were tested for cross reactivity to cell lines that overexpress the human homologs of SEZ6 (293-SEZ6), SEZ6L (293-SEZ6L), and SEZ6L2 (293-SEZ6L2).
(§2) Briefly, staining for flow cytometry was performed in lx cold PBS with 0.5% BSA. Primary antibodies (1 ug/ml) were incubated with live cells on ice for one hour. After washing in the same buffer, cells were incubated with Alexa Fluro® 488-conjugated anti-human IgG secondary antibody @1:1000 (709-546-149, Jackson ImmunoResearch) on ice in the dark. After a 30 minute incubation, cells were washed in the same buffer and re-suspended in buffer plus propidium iodide (PI) to identify live cells. As a negative control, cells were incubated with secondary antibody alone. Acquisition of the data was performed on a MACSQuant® Flow Cytometer (Miltenyi Biotec) and analyzed with FlowJo software.

Another assay addresses T2, SEZ6L2 (293-SEZ6L2) (Homo sapiens, UniProt Q6UXD5).
T2 construct: cDNA encoding the complete mature human SEZ6L2 protein containing a C-terminal FLAG tag was purchased from Origene; FLAG (C); host or cells: HEK 293
Described as above. In kind it is binding. To be noted: primary antibody 1 ug/ml, live cells on ice. How it is done: as §1, §2

A further assay concerns the target T3, SEZ6 (293-SEZ6) (Homo sapiens, UniProt Q53EL9).
T3 construct: expressed in transfected cells; host or cells: HEK 293
T3 sequence (Q53EL9 20-994): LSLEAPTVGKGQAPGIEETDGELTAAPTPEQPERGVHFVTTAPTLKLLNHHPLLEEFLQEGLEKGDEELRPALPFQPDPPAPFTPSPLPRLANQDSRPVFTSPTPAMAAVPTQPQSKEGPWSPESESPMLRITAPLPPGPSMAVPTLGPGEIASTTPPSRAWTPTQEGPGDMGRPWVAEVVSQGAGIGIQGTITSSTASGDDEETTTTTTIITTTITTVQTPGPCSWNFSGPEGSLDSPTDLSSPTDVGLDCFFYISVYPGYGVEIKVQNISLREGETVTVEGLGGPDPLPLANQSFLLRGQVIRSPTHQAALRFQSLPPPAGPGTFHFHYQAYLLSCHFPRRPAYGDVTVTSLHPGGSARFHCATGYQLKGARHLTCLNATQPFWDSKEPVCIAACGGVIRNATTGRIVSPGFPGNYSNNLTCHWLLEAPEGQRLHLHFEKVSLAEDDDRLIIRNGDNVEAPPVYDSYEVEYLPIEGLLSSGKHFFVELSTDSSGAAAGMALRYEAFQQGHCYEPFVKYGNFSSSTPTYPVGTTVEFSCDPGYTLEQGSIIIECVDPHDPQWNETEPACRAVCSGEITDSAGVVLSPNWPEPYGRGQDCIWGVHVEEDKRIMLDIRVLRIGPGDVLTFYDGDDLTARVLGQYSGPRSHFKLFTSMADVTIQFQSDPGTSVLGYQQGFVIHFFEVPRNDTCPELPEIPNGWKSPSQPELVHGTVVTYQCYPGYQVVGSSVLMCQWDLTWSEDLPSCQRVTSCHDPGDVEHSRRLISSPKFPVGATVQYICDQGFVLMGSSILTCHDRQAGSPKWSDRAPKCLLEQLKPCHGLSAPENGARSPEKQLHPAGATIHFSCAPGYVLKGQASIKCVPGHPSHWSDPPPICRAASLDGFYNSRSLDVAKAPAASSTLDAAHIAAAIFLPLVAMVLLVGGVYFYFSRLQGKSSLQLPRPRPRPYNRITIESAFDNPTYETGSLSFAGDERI
The description is as above. To be noted: primary antibody 1 ug/ml, live cells on ice. It is filed as binding. Here is the method:
as §1, §2

A further assay deals with T4, Human SEZ6L2 (Homo sapiens, UniProt Q6UXD5).
T4 construct: a protein composed of the extracellular portion of the human SEZ6L2 protein; His6 (C); made in house; host or cells: CHO (ExpiCHO)
T4 sequence (Q6UXD5 28-844 limits assumed): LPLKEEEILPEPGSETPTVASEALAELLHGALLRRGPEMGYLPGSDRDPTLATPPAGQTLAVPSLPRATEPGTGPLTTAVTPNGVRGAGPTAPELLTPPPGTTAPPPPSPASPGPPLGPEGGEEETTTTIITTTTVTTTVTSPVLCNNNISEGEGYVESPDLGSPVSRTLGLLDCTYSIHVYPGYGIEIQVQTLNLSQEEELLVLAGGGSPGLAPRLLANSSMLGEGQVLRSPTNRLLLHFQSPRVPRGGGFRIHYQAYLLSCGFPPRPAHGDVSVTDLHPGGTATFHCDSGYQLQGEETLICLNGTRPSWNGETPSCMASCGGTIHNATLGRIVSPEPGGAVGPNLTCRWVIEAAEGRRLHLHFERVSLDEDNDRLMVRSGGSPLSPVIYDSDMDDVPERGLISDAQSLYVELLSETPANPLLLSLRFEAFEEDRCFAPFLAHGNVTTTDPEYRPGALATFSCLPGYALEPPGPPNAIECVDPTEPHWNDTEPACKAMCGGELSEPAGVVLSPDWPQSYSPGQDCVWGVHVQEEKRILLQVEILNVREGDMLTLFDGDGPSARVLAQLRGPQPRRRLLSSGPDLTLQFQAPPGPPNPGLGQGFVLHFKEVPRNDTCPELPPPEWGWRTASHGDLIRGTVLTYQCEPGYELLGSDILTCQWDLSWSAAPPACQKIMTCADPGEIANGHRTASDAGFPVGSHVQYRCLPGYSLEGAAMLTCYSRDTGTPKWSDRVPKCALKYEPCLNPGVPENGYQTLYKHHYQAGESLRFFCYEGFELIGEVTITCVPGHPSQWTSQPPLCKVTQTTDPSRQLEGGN
Description: ForteBio Octet binding kinetics, Protein A biosensors. Here is the method: (§3) Affinity: The affinity of antibodies to various recombinant SEZ6L2 molecules was determined on an Octet Red (Pall, ForteBio) instrument. After loading reagents into a 96-well plate, the Octet Red with Protein A-conjugated biosensors was programmed as follows: 30 seconds for baseline #1; 120 seconds to immobilize the antibody; 30 seconds for baseline #2; 300 seconds for association of antibody to recombinant SEZ6L2; and 300-600 seconds for dissociation of recombinant SEZ6L2 from the antibody.
(§4) Table 10, below, indicates the KD, Kon, and Koff values for human antibodies 1A1, 3A1, 3A2, and 3A3 and humanized antibodies 16H8, 3E2, 20C4, and 2E4, for both human SEZ6L2 and cynomolgus monkey SEZL2, as determined by ForteBio Data Analysis 9.0 Kinetics software. Briefly, within the ForteBio Octet red96 instrument, Protein A biosensors were incubated with fixed amounts of the test antibody. The biosensors with bound antibody were then rinsed and dipped into wells containing varying concentrations of the recombinant target protein. Approximately 5 different concentrations were independently tested. After a period of time, the biosensors were dipped into buffer to allow the target protein to dissociate from the antibody. The ForteBio software package generated a best-fit curve for each of the profiles of the varying concentrations of target protein. The calculated affinity measurements were analyzed, and the rate constant values from the middle of the linear range were chosen.

The subject of a further assay is Cynomolgus monkey SEZ6L2. Described as above. Here is the method: as §3, §4

T2 sequence (Q6UXD5 28-910): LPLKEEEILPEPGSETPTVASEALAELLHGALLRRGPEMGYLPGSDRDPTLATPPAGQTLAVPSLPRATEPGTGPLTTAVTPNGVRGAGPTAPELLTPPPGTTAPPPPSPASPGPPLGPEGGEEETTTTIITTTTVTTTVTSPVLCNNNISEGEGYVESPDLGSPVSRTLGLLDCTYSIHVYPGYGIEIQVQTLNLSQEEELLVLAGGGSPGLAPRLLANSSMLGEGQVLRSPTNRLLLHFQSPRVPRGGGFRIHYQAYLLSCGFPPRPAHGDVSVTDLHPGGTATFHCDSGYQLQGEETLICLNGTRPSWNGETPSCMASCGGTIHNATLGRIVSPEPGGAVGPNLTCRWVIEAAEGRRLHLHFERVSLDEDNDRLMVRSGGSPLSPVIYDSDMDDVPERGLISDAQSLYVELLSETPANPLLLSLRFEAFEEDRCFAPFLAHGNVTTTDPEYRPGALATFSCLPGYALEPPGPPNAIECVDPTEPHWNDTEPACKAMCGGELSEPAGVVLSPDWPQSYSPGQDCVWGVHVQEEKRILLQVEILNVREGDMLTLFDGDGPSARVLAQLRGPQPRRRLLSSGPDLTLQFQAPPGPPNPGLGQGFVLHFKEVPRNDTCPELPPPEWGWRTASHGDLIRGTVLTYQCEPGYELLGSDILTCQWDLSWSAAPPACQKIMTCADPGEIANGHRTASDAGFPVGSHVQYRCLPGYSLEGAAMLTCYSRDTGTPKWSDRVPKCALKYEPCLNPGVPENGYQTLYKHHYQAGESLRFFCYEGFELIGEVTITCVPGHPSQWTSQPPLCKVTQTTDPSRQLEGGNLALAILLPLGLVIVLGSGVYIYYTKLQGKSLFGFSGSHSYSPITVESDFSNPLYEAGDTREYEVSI

B1: 3B6: human anti-SEZ6L2 antibody, VH SEQ ID NO: 109, VL SEQ ID NO: 113 (antibody, V domains shown)
VH: QVQLVQSGAEVKKPGASVKVSCKASGYTFTAYYMHWVRQAPGQGLEWMGWINPNSGGTNYAQKFQGRVTMTRDTSIDTAYLDLSRLRSDDTAVYYCAKDSGYDWYFDIWGRGTLVTVSSA
VL: EIVLTQSPATLSLSPGERATLSCRASQNISSYLAWYQQKPGQAPRLLIYDASNRATGIPARFSGSGSGTDFTLTISSLEPEDFAVFYCQQHSNWPPLTFGGGTKVEIKR
On to B1, for which the “binding to 293-SEZ6L cells by flow cytometry” value (“binding to 293-SEZ6L cells” for short) in the assay with SEZ6L (293-SEZ6L) is given as “no detectable binding”. Besides, the “binding to 293-SEZ6L2 cells by flow cytometry” value (“binding to 293-SEZ6L2 cells” for short) in the assay with SEZ6L2 (293-SEZ6L2) was “recognize a cell line that overexpresses SEZ6L2”. Further, the “binding to 293-SEZ6 cells by flow cytometry” value (from here on “binding to 293-SEZ6 cells”) with SEZ6 (293-SEZ6) is reported as “no detectable binding”.

B2: 16H8: humanized anti-SEZ6L2 antibody, VH SEQ ID NO: 1, VL SEQ ID NO: 5 (antibody, V domains shown)
VH: QIQLVQPGAEVKKPGASVKVSCKASGYTFTSYWMYWVRQAPGQGLEWMGAIYPRDSDTSYNQKFKGRVTMTRVTSTSTVYMELSSLRSEDTAVYYCTRGDYYYGSSYYAMDYWGQGTTVTVSSA
VL: DIVMTQSPLSLPVTPGEPASISCSSSKSLLHSNGITYLYWYLQKPGQSPQLLIYRMSNLASGVPDRFSGSGSGTDFTLKISRVEAEDVGVYYCAQMLERPYTFGQGTKVEIKR
As for B2, in the assay with Human SEZ6L2, the “K(off)” value is recorded as 2.20E−04 and the “K(on)” value was found to be 6.03E+05. In addition, the “binding to 293-SEZ6L cells” value with SEZ6L (293-SEZ6L) is recorded as “no detectable binding”. Also, the “binding to 293-SEZ6L2 cells” value in the assay with SEZ6L2 (293-SEZ6L2) is on record as “recognize a cell line that overexpresses SEZ6L2”. Further, the “binding to 293-SEZ6 cells” value in the assay with SEZ6 (293-SEZ6) is given as “no detectable binding”.

B3: 3E2: humanized anti-SEZ6L2 antibody, VH SEQ ID NO: 9, VL SEQ ID NO: 13 (antibody, V domains shown)
VH: EVQLVESGGGLVQPGGSLKLSCAASGFSFNTITMNWVRQASGKGLEWVGRIRSKSNNYATYYADAVKDRFTISRDDSKNTAYLQMNSLKTEDTAVYYCVRGIFSGYVYAMDYWGQGTLVTVSSA
VL: DVVMTQSPLSLPVTVGQPASISCRSSQSIVHSNGNTYLEWFQQRPGQSPRVLIYKVSNRFSGVPDRFSGSGSGTDFTLKISRVEAEDVGVYYCFQGSHVPYTFGGGTKLEIKR
Regarding B3, in the assay on Cynomolgus monkey SEZ6L2, the “K(off)” value stood at 2.95E−03 and the “K(on)” value turned out to be 1.37E+06. Further, in the assay with Human SEZ6L2, the “K(off)” value is recorded as 3.19E−03 and the “K(on)” value is on record as 1.33E+06. For the same molecule, the “binding to 293-SEZ6L cells” value in the assay with SEZ6L (293-SEZ6L) is on record as “no detectable binding”. Moreover, in the assay with SEZ6L2 (293-SEZ6L2), the “binding to 293-SEZ6L2 cells” value is reported as “recognize a cell line that overexpresses SEZ6L2”. The “binding to 293-SEZ6 cells” value with SEZ6 (293-SEZ6) is listed as “no detectable binding”.

B4: 2E4: humanized anti-SEZ6L2 antibody, VH SEQ ID NO: 25, VL SEQ ID NO: 29 (antibody, V domains shown)
VH: EVKLVESGGVLVKPGGSLRLSCAASGFTFSKYAMSWVRQAPGKGLEWVSTISSGGSYTYYPDSVKGRFTISRDNARNSLYLQMNSLRAEDTAIYYCTREGGYDEGYAMDYWGQGTTVTVSSA
VL: DIVMTQSPDSLAVSLGERATINCRSSQSLVHSYGNTYLHWYQQKPGQPPKLLIYKVSNRFSGVPDRFSGSGSGTDFTLTISSLQAEDVAVYFCSQSTHFRTFGGGTKVEIKR
For the molecule B4, in the assay with Cynomolgus monkey SEZ6L2, the “K(off)” value is reported as 1.94E−03 and the “K(on)” value worked out at 1.63E+05. Also, in the assay with Human SEZ6L2, the “K(off)” value was 1.33E−03 and the “K(on)” value was determined as 2.05E+05. Besides, the “binding to 293-SEZ6L cells” value with SEZ6L (293-SEZ6L) is recorded as “no detectable binding”. The “binding to 293-SEZ6L2 cells” value in the assay with SEZ6L2 (293-SEZ6L2) is reported as “recognize a cell line that overexpresses SEZ6L2”. For the same molecule, the “binding to 293-SEZ6 cells” value with SEZ6 (293-SEZ6) was “no detectable binding”.

B5: 20C4: humanized anti-SEZ6L2 antibody, VH SEQ ID NO: 17, VL SEQ ID NO: 21 (antibody, V domains shown)
VH: EVQLVESGGGLVQPGGSLRLSCAASGFTFTDYYMSWVRQAPGKGLEWVALIRNKANGYTTEYSASVKGRFTISRDNSKNSLYLQMNSLRAEDTAVYYCARNGLYGLFAYWGQGTLVTVSSA
VL: DIVMTQTPLSIPVTPGEPASISCRSSTSLLESSGKHRLYWYLQKPGQSPQLLIYYMSNLASGVPDRFSGSGSGTDFTLKISRVEAEDFGVYYCMQSLEYPLTFGAGTKVEIKR
For the molecule B5, the “K(off)” value with Cynomolgus monkey SEZ6L2 was found to be 3.18E−04; with Human SEZ6L2 it was 2.20E−04. Besides, the “K(on)” value in the assay with Cynomolgus monkey SEZ6L2 is given as 1.05E+05; in the assay with Human SEZ6L2 it was 6.35E+04. Further, the “binding to 293-SEZ6L cells” value with SEZ6L (293-SEZ6L) was “no detectable binding”. For the same molecule, the “binding to 293-SEZ6L2 cells” value in the assay with SEZ6L2 (293-SEZ6L2) is reported as “recognize a cell line that overexpresses SEZ6L2”. For the same molecule, the “binding to 293-SEZ6 cells” value in the assay with SEZ6 (293-SEZ6) is “no detectable binding”.
